Holding throughout (assay): SPR
A general note: Surface plasmon resonance follows binding to a sensor surface in real time, without labels.

The target in assay [1] is recombinant matrilin-3 A-domain (human) (UniProt O15232).
Assay [2] concerns the target T1, full-length type IX collagen (human, UniProt P20849 24-921; Q14055 24-689; Q14050 26-684).
The target of assay [3] is T1, full-length type IX collagen. This is another data set of the same source.

Read-outs that look alike come from different tables or passages of the source.

In the case of “vitreous form of human type IX collagen (from UniProt Q14055 24-689; Q14050 26-684) (complex)”, the Kd (as a rule, the concentration at which binding is half-saturated) in assay [1] is 3.25 nM.

B1: full-length matrilin-3 (natural protein, UniProt O15232 29-486, looked up)
chain: DPVARPGFRRLETRGPGGSPGRRPSPAAPDGAPASGTSEPGRARGAGVCKSRPLDLVFIIDSSRSVRPLEFTKVKTFVSRIIDTLDIGPADTRVAVVNYASTVKIEFQLQAYTDKQSLKQAVGRITPLSTGTMSGLAIQTAMDEAFTVEAGAREPSSNIPKVAIIVTDGRPQDQVNEVAARAQASGIELYAVGVDRADMASLKMMASEPLEEHVFYVETYGVIEKLSSRFQETFCALDPCVLGTHQCQHVCISDGEGKHHCECSQGYTLNADKKTCSALDRCALNTHGCEHICVNDRSGSYHCECYEGYTLNEDRKTCSAQDKCALGTHGCQHICVNDRTGSHHCECYEGYTLNADKKTCSVRDKCALGSHGCQHICVSDGAASYHCDCYPGYTLNEDKKTCSATEEARRLVSTEDACGCEATLAFQDKVSSYLQRLNTKLDDILEKLKINEYGQIHR
B1 registered a Kd in assay [2] of 1.5 nM.

B2: recombinant matrilin-3 A-domain (domain or fragment, human, UniProt O15232 76-263, looked up)
chain: VCKSRPLDLVFIIDSSRSVRPLEFTKVKTFVSRIIDTLDIGPADTRVAVVNYASTVKIEFQLQAYTDKQSLKQAVGRITPLSTGTMSGLAIQTAMDEAFTVEAGAREPSSNIPKVAIIVTDGRPQDQVNEVAARAQASGIELYAVGVDRADMASLKMMASEPLEEHVFYVETYGVIEKLSSRFQETFC
B2: in assay [3], the Kd stood at 1.37 nM.

Source of the values: paper PMC2673055 (The Journal of biological chemistry, 2007).
